Test results taken from US20050250690A1.

Molecular target: OB-R (leptin receptor) expressed by rabbit endometrial cells (rEEC and rESC) (rabbit)
Assay: competition with 125I-human leptin for OB-R in rabbit endometrial cell lysates (rEEC and rESC), PEG precipitation

Ki: 60 pM
B1: LPA-2 (leptin peptide antagonist 2; residues 70-95 of helix III of the human leptin molecule) (peptide)
peptide: SRNVIQISNDLENLRDLLHVLAFSKS
